Test results taken from the DeepSol protein solubility set.

Assay: soluble on expression in E. coli; label from the status in PepcDB or PDB records

| Sequence | soluble on expression in E. coli |
| --- | --- |
| MSQPRTVTVLGATGSIGHSTLDLIERNLDRYQVIALTANRNVKDLADAAKRTNAKRAVIADPSLYNDLKEALAGSSVEAAAGADALVEAAMMGADWTMAAIIGCAGLKATLAAIRKGKTVALANKESLVSAGGLMIDAVREHGTTLLPVDSEHNAIFQCFPHHNRDYVRRIIITASGGPFRTTSLAEMATVTPERAVQHPNWSMGAKISIDSATMMNKGLELIEAFHLFQIPLEKFEILVHPQSVIHSMVEYLDGSILAQIGSPDMRTPIGHTLAWPKRMETPAESLDFTKLRQMDFEAPDYERFPALTLAMESIKSGGARPAVMNAANEIAVAAFLDKKIGFLDIAKIVEKTLDHYTPATPSSLEDVFAIDNEARIQAAALMESLPA | soluble |
| MMPPLTKIEVLAKRVMEGAQLKTHKYFRIAVPHAITGQQLIALVLERGAPDDEAEASHLASLLLHHGYMFPVIEHGQPFKDDGTLYRLQRPYFWPSQAELVPDVEYAIYLNKRLLRNEQKHGLEEDEVESFNRLADVLAHMWAFIVQQSELQLKQQKEKKKVDKVVFDSEERAFWKIRKPSRGGPNFLEDPYMKIEKKIRRQNAQGYRCLMDRLRFAIKTKPWLKALKASDTMVTWVDQRAEFDPFLHPPQPSNPWISDEASFWNQPTDTSSAEIPTEKRVKRWGLSVQELVKDPIGRQVLETFLESEFSSENIRFWIAIQDLKYAPNEQIYQKAERIREEFLAQGAPAQVNVDNRTLDQTLECISKAKDASQMRFAFYHSEEHVFTLMAKDSYPRFVRSQIYKAVLTAAQQHGTKRLGWRNFVFNMGTTKKPATSKPAKPQDSIGTGQVLPKQLSSDSLPVRQAHGVKPDPE | not soluble |
| MTVLMRLVASAYSIAQKAGMIVRRVIAEGDLGIVEKTCATDLQTKADRLAQMSICSSLARKFPKLTIIGEEDLPSEEVDQELIEDSQWEEILKQPCPSQYSAIKEEDLVVWVDPLDGTKEYTEGLLDNVTVLIGIAYEGKAIAGVINQPYYNYEAGPDAVLGRTIWGVLGLGAFGFQLKEVPAGKHIITTTRSHSNKLVTDCVAAMNPDAVLRVGGAGNKIIQLIEGKASAYVFASPGCKKWDTCAPEVILHAVGGKLTDIHGNVLQYHKDVKHMNSAGVLATLRNYDYYASRVPESIKNALVPAHHHHHH | soluble |
| MSDPDLELASRREIYQRIADTPGVHFRALLDELKYAQGTLQYQLRWLADKGLIDVSDDGKYTRYYPAAEFDEADRTVMNALRREYSRRILAHLLTDSPLSTTELSERLDKAQSTVSWHLSKLAEADLVTKERDGRSVVYEVSDPDRVKYLYTVHRRSFTDKVVDRILGLWDSY | not soluble |
| MGSDKIHHHHHHMGNKPSGRHYFAEGITNRGYISLLPNMMSEWERTYVLMGGPGTGKSTTIKMIGLDLLDRGYEVDFLRSARDPDSMAGVLIRRFNWAILDHYEIAPLHWRAPGVIEHFVDFSKYCNQGKLEQQRLRVLELGEKIKRGQQRIGEILAEEFGGRIRERFYAKADEGRPWLPKLYASDLFKEAKGPWSKAQDALKKIQKSAVQSFFLHGINPEGWLNLAPYFLTDYDQIRFDGEEAHEAMEWVLQEAEQLGQVIDIVLHPLYPDEILGIVFPERNLAIWQGDPEHLEDQGLGCPFSNDLKKALLDTQRLRDKLKAIYTKTVDFDQVDSMKTDLLSSILRDMDKKVHTID | not soluble |
| AHHHHHHGSGETLRIAFIYDVIYPWVKGGVERRLYEIAKRLAEKHEVHIYGYKHWDGKKIQEMNGIFYHGTIKPKKIYHGNRRAILPPIFHSINLLFLLKGQHLDIIDCQATPYFPCYASRVSNSNLVITWHEFWGNYWLKYLGRAGFFGKIIERGLFVLTDNHIAVSLKTKKDLYKAGLRKNIYVVPNGIDFEKIQEIKPSSYTSDIIFVGRLIKEKNVPLLLKALTIIKQDIPDVKAVVVGDGPEREYLEKLSFKLNLQDNVKFLGFLNRYEDVVALMKASKVFAFPSLREGFGIVVIEANASGLPVVTVEHEMNASKDLILEWKNGFIAKVNEKDFAEKILIALEKRKKMKKLSTEIARKYNWNEIVKKLERYYRWIA | soluble |
| MAHHHHHHMASQKPEDVTVSDGMLANLEREFNEAMRALEGHVKFVCFREEYEKLHRALLNSHESEKRLVRRCQQLTQELMSNAAKMQAAVKLAQDDHTTIEALKKETEKAWRMVDVANEKDARAKETIKKLREEVFSLQEIVENGTELTPTQTATLEELKLEKKRMQSEYDELVKQMETLTRETFELGHKMKEAEEEMMKHQEELRRVTDREKTVRQEYEKELRARDRSNLQLREQLLLVQQREKELKSHEQLHSKLSSAVNLLRLQLQEDQNRRQALAQKIESAERQLYHTQQSYDDAVDTREALNERHREVRKEITEAEKKAVDITAEKQRTHRVRDNDYKELCRLVQQNEDIRRDQTNLERQRLNVEKRIEMARREKEDLCRAFEMMQREKDSLKKVSEKEREKMQIMKN | soluble |
| MAATARRGWGAAAVAAGLRRRFCHKLKNPYTIKKQPLHQFVQRPLFPLPAAFYHPVRYMFIQTQDTPNPNSLKFIPGKPVLETRTMDFPTPAAAFRSPLARQLFRIEGVKSVFFGPDFITVTKENEELDWNLLKPDIYATIMDFFASGLPLVTEETPSGEAGSEEDDEVVAMIKELLDTRIRPTVQEDGGDVIYKGFEDGIVQLKLQGSCTSCPSSIITLKNGIQNMLQFYIPEVEGVEQVMDDESDEKEANSP | soluble |
| MPPPTNQFKHDNIPLQTQGCEINVLCVRNPRARRIKLSVDERGVRLILPPCADLDAGTRFLLEQRAWIETQMARYASGTAATIPLRRGETTALPLRDQQLPLHWHESRYTRLELDAHGLQFYITTHTNDNTLRHTLREFYEVQARVDISDWLRKYLPGLPRPPTRVRLKPMSSQWGSLATAGHMALDLALVLGRPSAFEYVVVHELCHLIQANHSPAFWREVECRFPLWREERDYFHLKGRILKAQLRRLLQTELEHHHHHH | not soluble |
| SPGQGTQSENSCTHFPGNLPNMLRDLRDAFSRVKTFFQMKDQLDNLLLKESLLEDFKGYLGCQALSEMIQFYLEEVMPQAENQDPDIKAHVNSLGENLKTLRLRLRRCHRFLPCENKSKAVEQVKNAFNKLQEKGIYKAMSEFDIFINYIEAYMTMKIRN | soluble |
| MAHHHHHHMDDERTTAAGRITSTNVREEEPSITVPCELDTHIEQHERRKRGRVWTAEEQAAYWREKKEKQRQRKKAAAAERREMQQKEWEALSQSERERRRAEAIAVHEKRRGAEMRLQQLCQEHLADAKLPVLVFDLSFAWCMNASDCRSTVSQVKLSYSALRRHAFPLRPVITSIGGSADGEMACAHSDVLQSLCTFNGFSRYPLPVHENHWSSLYDLQRVVFLTADAEVVLERIEQGTVYIVGAFVDHNARKFLTRDAAIRYGVRMARLPIDESIKVGNICKVLTVNHVVDVLCRYTECGDWSTAFDVLPTRRTVSRRERRTNAHISMSSNTVFGECDSVDTDETGGTTRVASGQAD | not soluble |
| MSLTTNPVKHTDEHIGALYFSDLPGISNLTCTANYIGGKFWTTAHHCVEGRSRFVGFIEQSDGQYAGIEHVYTKSSDYDIALIKVGSGIDAEQFSLTRSRPAVGKMLEVVGFAVVNPFSSRATMEVTNSNTVANYPMSNLYYKDVFSAKPAGSFPYVISGGDSGAAVWSGETMYGIASGSNGSTKNLAANVGPHVSWIEQTMQNNSNSSPYEILQAFRGGLATSYPKYNQIRDLVDSSEGHHHHHH | not soluble |
| MAHHHHHHMPLIEAHLPALRPYIRYPVVAATGSFDVGRLQQYATVCPATYVIETITEALAELTRRMKWSFDLCGNFRDAADFAARGISFVALERATGNIAAGASSFCICDGGVEVGVETAESHQRRGLALACSARLILERLKHGLYPNWDAHVPHSAHLAEKLGYTRGTPYKAYVDELQT | not soluble |
| MGHHHHHHSHMPKNQEDSEEKGEKDEQTAKFLHKLAENGKDRGLPDCVVAQYEKNAWEATNSDEKYKSCEKCGMPPPPPIDGAKNSVVEEVCKNCETINEKPIGIESQILEKRRNEEILKRKEERKSLKRSAEESVTNSAPEKIQKKVHVKIMPRKCAPQILRRSLVPPPILTPKSAKKKLKLAENKEPDFLKALLNVTGNPV | not soluble |
| MSRLPTTPCEQLKLDNQLCFALYSTSLQMTKVYKPLLQALGLTYPQYIAMLVLWERDGLTVGEISARMLTDPGSLTPLLKRLEGEGLITRTRSSEDERVVLLRLTDKGRALQRQAESIPACILESTGLDLPQLVALKDELLALRGNLQAPD | not soluble |
